Experimental data published in US20210246451, “APTAMER FOR ADAMTS5 AND USE FOR APTAMER FOR ADAMTS5” (RIBOMIC INC., published 2021).
Substitutions are numbered along the chain they refer to.

Assays:
[1] = molecular target: T1, ADAMTS5 (UniProt Q9UNA0 Q9UNA0:262-622); assay: inhibition; SDS-PAGE aggrecan cleavage, 5 nM enzyme; details: tags: R&D Systems
T1 sequence: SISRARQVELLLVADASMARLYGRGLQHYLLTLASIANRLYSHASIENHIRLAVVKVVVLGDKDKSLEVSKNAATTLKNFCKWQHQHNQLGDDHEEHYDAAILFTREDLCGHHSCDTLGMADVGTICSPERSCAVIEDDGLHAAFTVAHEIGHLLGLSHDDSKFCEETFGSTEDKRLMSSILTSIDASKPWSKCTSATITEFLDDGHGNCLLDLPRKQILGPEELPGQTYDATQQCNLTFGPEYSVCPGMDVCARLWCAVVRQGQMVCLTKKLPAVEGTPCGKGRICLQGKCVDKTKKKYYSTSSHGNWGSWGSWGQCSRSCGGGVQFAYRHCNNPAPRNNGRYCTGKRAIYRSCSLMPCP
Experimental: Whether an aptamer having the nucleotide sequence shown in SEQ ID NO: 1 inhibits the enzyme activity of ADAMTS5 was evaluated by the following method. As a substrate of ADAMTS5, the G1-IGD-G2 domain of aggrecan (manufactured by R&D systems) was used. ADAMTS5 specifically cleaves in between the 392nd glutamic acid and the 393rd alanine in the G1-IGD-G2 domain and produces two fragments. These fragments have faster electrophoretic mobility than uncleaved G1-IGD-G2. Thus, the enzyme activity of ADAMTS5 can be measured by quantifying the band intensity of G1-IGD-G2 by SDS-PAGE electrophoresis. The assay was performed in a solution A buffer with a reaction mixture volume of 10 μL. First, a mixture (10 μL) of a nucleic acid and ADAMTS5 was prepared and incubated at 25° C. for 15 min. To a substrate solution (5 μL) diluted with solution A was added a mixture (5 μL) of the nucleic acid and ADAMTS5 to start the enzyme reaction. The final concentration of ADAMTS5 in the reaction solution was 5 nM, and the final substrate concentration was 50 μg/mL. […] The staining was performed according to the manual of Sigma-Aldrich and detected using STORM840 manufactured by GE Healthcare. […] The amount of uncleaved substrate in each reaction solution was quantified from the band intensity and the standard curve. […] The inhibition rate of the test substance was calculated using the following equation. […]

[2] = molecular target: T1, ADAMTS5; assay: inhibition; method 2 ELISA; 98.1% at 2 nM; details: tags: R&D Systems
Experimental: (§1) The substrate cleavage efficiency of ADAMTS5 under these reaction conditions was 80-100%. The inhibition rate of the test substance was calculated using the following equation.
(§2) On the other hand, the aptamers having the sequences shown by the sequences of SEQ ID NOs: 11(34)-11(35) and SEQ ID NO: 15 were evaluated by the following method (evaluation method 2). The cleavage reaction of the substrate (aggrecan G1-IGD-G2) by ADAMTS5 was performed in the same manner as in Example 1 except the following points. The differences are that the final concentrations of ADAMTS5 and the substrate were respectively 0.2 nM and 400 nM (48 μg/mL), and that the enzyme reaction time was 30 min. […] The cleaved substrate was quantified by a sandwich ELISA method using two kinds of anti-aggrecan antibodies. […] Using this, the amount of cleaved substrate can be quantified. […] The inhibition rate of the test substance was calculated using the following equation.
(§3) The aptamers having the sequences shown in SEQ ID NOs: 28(l)-28(18) (SEQ ID NO: 28 lineage) and SEQ ID NOs: 29(1)-29(3) (SEQ ID NO: 29 lineage) were all produced by chemical synthesis. Whether these aptamers inhibit the enzyme activity of ADAMTS5 was evaluated by a method similar to that in Example 1 and Example 5. In the Table, “n.d.” means not determined. […] “n.d.” means not determined.

[3] = molecular target: T1, ADAMTS5; assay: inhibition; method 2 ELISA, 0.2 nM enzyme; method 1 77.5%; details: tags: R&D Systems
Experimental: as §1, §2, §3

[4] = molecular target: T1, ADAMTS5; assay: inhibition; method 2 ELISA; 95.9% at 2 nM; details: tags: R&D Systems
Experimental: as §1, §2, §3

[5] = molecular target: T1, ADAMTS5; assay: inhibition; SDS-PAGE aggrecan cleavage; 81% inhibition in Table 9 method 1; details: tags: R&D Systems
Experimental: As a substrate of ADAMTS5, the G1-IGD-G2 domain of aggrecan (manufactured by R&D systems) was used. ADAMTS5 specifically cleaves in between the 392nd glutamic acid and the 393rd alanine in the G1-IGD-G2 domain and produces two fragments. These fragments have faster electrophoretic mobility than uncleaved G1-IGD-G2. Thus, the enzyme activity of ADAMTS5 can be measured by quantifying the band intensity of G1-IGD-G2 by SDS-PAGE electrophoresis. The assay was performed in a solution A buffer with a reaction mixture volume of 10 μL. First, a mixture (10 μL) of a nucleic acid and ADAMTS5 was prepared and incubated at 25° C. for 15 min. […] The staining was performed according to the manual of Sigma-Aldrich and detected using STORM840 manufactured by GE Healthcare. […] The amount of uncleaved substrate in each reaction solution was quantified from the band intensity and the standard curve. […] The inhibition rate of the test substance was calculated using the following equation.
The aptamer having the sequence shown in SEQ ID NO: 26 was prepared by transcription by T7RNA polymerase, and the aptamers having the sequences shown in SEQ ID NOs: 27-29 were prepared by chemical synthesis. Whether these aptamers inhibit the enzyme activity of ADAMTS5 was evaluated by a method similar to that in Example 1. In the Table, “n.d.” means not determined.

[6] = molecular target: T1, ADAMTS5; assay: SPR; RU ratio <10%, same level as 40N; 300 mM NaCl, Ca, Mg; details: tags: R&D Systems
Experimental: The binding activity of aptamers having the nucleotide sequences shown in SEQ ID NOs: 1 and 2 to ADAMTS5 was evaluated by the surface plasmon resonance method. Biacore T100 manufactured by GE Healthcare was used for the measurement. The SA chip was used as the sensor chip, which had streptavidin immobilized thereon. About 800 RU of a 16-nucleotide Poly dT with biotin at the 5′-terminal was bound on the chip. […] ADAMTS5 for analyte was prepared at 0.1 μM, and injected at a flow rate so of 30 μL/min for 60 sec. As the running buffer, solution C was used. The solution C is a mixed solution of 300 mM sodium chloride, 5.4 mM potassium chloride, 1.8 mM calcium chloride, 0.8 mM magnesium chloride, 20 mM tris (pH 7.6), and 0.05% Tween20.
SEQ ID NO: 2 has a sequence with one base deletion from the continuous 4 G bases in the consensus sequence, and it was shown from the measurement results of the binding activity that the continuous 4 G bases in the consensus sequence are important for the activity of aptamers. Sensorgram showing the binding of an aptamer having the nucleotide sequence shown in SEQ ID NO: 1 to ADAMTS5 is presented in FIG. 2. […]

[7] = molecular target: T1, ADAMTS5; assay: inhibition; 10 nM; details: tags: R&D Systems
Experimental: (§4) Whether an aptamer having the nucleotide sequence shown in SEQ ID NO: 1 inhibits the enzyme activity of ADAMTS5 was evaluated by the following method. As a substrate of ADAMTS5, the G1-IGD-G2 domain of aggrecan (manufactured by R&D systems) was used. ADAMTS5 specifically cleaves in between the 392nd glutamic acid and the 393rd alanine in the G1-IGD-G2 domain and produces two fragments. These fragments have faster electrophoretic mobility than uncleaved G1-IGD-G2. Thus, the enzyme activity of ADAMTS5 can be measured by quantifying the band intensity of G1-IGD-G2 by SDS-PAGE electrophoresis. The assay was performed in a solution A buffer with a reaction mixture volume of 10 μL. First, a mixture (10 μL) of a nucleic acid and ADAMTS5 was prepared and incubated at 25° C. for 15 min. To a substrate solution (5 μL) diluted with solution A was added a mixture (5 μL) of the nucleic acid and ADAMTS5 to start the enzyme reaction. The final concentration of ADAMTS5 in the reaction solution was 5 nM, and the final substrate concentration was 50 μg/mL. The reaction solution was incubated at 37° C. for 2 hr, 2 μL of solution D was added, and the mixture was heated at 95° C. for 2 min to stop the enzyme reaction of ADAMTS5. Solution D contains 0.25 M tris (pH 6.8), 10% SDS, 50% glycerol, 0.25% bromo phenolblue, and 20% 2-mercaptoethanol. The heat-treated reaction solution was electrophoresed by 7.5% SDS-PAGE and stained with SYPRO Orange (manufactured by Sigma-Aldrich). The staining was performed according to the manual of Sigma-Aldrich and detected using STORM840 manufactured by GE Healthcare. […] The amount of uncleaved substrate in each reaction solution was quantified from the band intensity and the standard curve. […] The inhibition rate of the test substance was calculated using the following equation.
The nucleic acids of SEQ ID NOs: 10-12 were all produced by chemical synthesis. Whether aptamers having the nucleotide sequences shown by these nucleic acids inhibit the enzyme activity of ADAMTS5 was determined by a method similar to that in Example 1.

[8] = molecular target: T1, ADAMTS5; assay: inhibition; 5 nM ADAMTS5, aggrecan G1-IGD-G2 cleavage, 145 mM NaCl, Ca, Mg, 37 C; details: tags: R&D Systems; stem-internal loop-stem-loop (MFOLD)
Experimental: Whether an aptamer having the nucleotide sequence shown in SEQ ID NO: 1 inhibits the enzyme activity of ADAMTS5 was evaluated by the following method. As a substrate of ADAMTS5, the G1-IGD-G2 domain of aggrecan (manufactured by R&D systems) was used. ADAMTS5 specifically cleaves in between the 392nd glutamic acid and the 393rd alanine in the G1-IGD-G2 domain and produces two fragments. These fragments have faster electrophoretic mobility than uncleaved G1-IGD-G2. Thus, the enzyme activity of ADAMTS5 can be measured by quantifying the band intensity of G1-IGD-G2 by SDS-PAGE electrophoresis. The assay was performed in a solution A buffer with a reaction mixture volume of 10 μL. First, a mixture (10 μL) of a nucleic acid and ADAMTS5 was prepared and incubated at 25° C. for 15 min. To a substrate solution (5 μL) diluted with solution A was added a mixture (5 μL) of the nucleic acid and ADAMTS5 to start the enzyme reaction. […] The staining was performed according to the manual of Sigma-Aldrich and detected using STORM840 manufactured by GE Healthcare. […] The amount of uncleaved substrate in each reaction solution was quantified from the band intensity and the standard curve. […] The inhibition rate of the test substance was calculated using the following equation.
The concentration of an inhibitor necessary for inhibiting 50% of the enzyme activity (IC₅₀) was determined. […]

[9] = molecular target: T1, ADAMTS5; assay: inhibition; 10 nM aptamer; details: tags: R&D Systems
Experimental: as §4
The binding activity and enzyme inhibitory activity of aptamers having nucleotide sequences shown in SEQ ID NOs: 16-25 to ADAMTS5 were measured. The binding activity was evaluated by the surface plasmon resonance method. […]

## UAUAGGGGCCUCCACAGCGUAAGCUUGGACUUAAACCAUA (ssRNA, 2'-OMe at 1-3,5,6,16-19,23-27,34-40; 2'-F other pyrimidines) [SEQ ID NO: 27]
[1]
  IC50: 5.9 nM

## CGUAGGGGCCUCCACAGCGUAAGCUUGGACUUAAACCACG (ssRNA, as SEQ 28 plus 2'-OMe at 20-22,31; 3' idT) [28(15)]
[2]
  IC50: 0.084 nM

## CGUAGGGGCCUCCACAGCGUAAGCUUGGACUUAAACCACG (ssRNA, as SEQ 28 plus 2'-OMe at U31) [28(3)]
[3]
  IC50: 0.108 nM

## CGUAGGGGCCUCCACAGCGUAAGCUUGGACUUAAACCACG (ssRNA, as SEQ 28 plus 2'-OMe at 20-22,31; 5' 40 kDa branched PEG; 3' idT) [28(18)]
[4]
  IC50: 0.029 nM

## CGUAGGGGCCUCCACAGCGUAAGCUUGGACUUAAACCACG (ssRNA, 2'-OMe at 1-3,5,6,16-19,23-27,34-40; 2'-F other pyrimidines) [SEQ ID NO: 28]
[5]
  IC50: 3.4 nM

B1: SEQ ID NO: 2 (ssRNA)
RNA: GGGUACGACCGUCGUACGAUUGGGCCUCCACAGCUGCUCAGCUUGGACUAAACCAAUAAGAGACUAACGCCUAGCGUAC
modifications: 2'-F pyrimidines; 3' A16 tail for SPR
[6]
  binding result: no binding

## AUUGGGGCCUCCACAGCGCUCGCUUGGACUAAACCAAU (ssRNA, 2'-OMe at 1-5,15-24,26,32-38; 2'-F other pyrimidines) [SEQ ID NO: 11]
[7]
  activity: 59.8 % inhibition

B2: SEQ ID NO: 1 (ssRNA)
RNA: GGGUACGACCGUCGUACGAUUGGGGCCUCCACAGCUGCUCAGCUUGGACUAAACCAAUAAGAGACUAACGCCUAGCGUAC
modifications: 2'-F pyrimidines, 2'-OH purines; 3' A16 tail for SPR
[8]
  IC50: 16.8 nM

## UUGGGGCCUCCACAGCGCUCGCUUGGACUAAACCAA (ssRNA, 2'-OMe at 1-4,14-23,25,31-36; 2'-F other pyrimidines) [SEQ ID NO: 12]
[7]
  activity: 71.1 % inhibition

## AUUGGGGCCUCCACAGCUGCUCAGCUUGGACUAAACCAAU (ssRNA, 2'-OMe at 1-5,15-26,28,34-40; 2'-F other pyrimidines) [SEQ ID NO: 10]
[7]
  activity: 65 % inhibition

B3: SEQ ID NO: 24 (ssRNA)
RNA: GGGACAUGCGUAACUUGAUAGGGGCCUCCACAGCCGGUAGGCUUGGACUCAAACCAUCAAGUCCAGAUCGAGCA
modifications: 2'-F at all pyrimidines
[9]
  activity: 20.2 % inhibition

B4: SEQ ID NO: 22 (ssRNA)
RNA: GGGACAUGCGUAACUGCAUAGGGGCCUCCACAGCUAUUCAGCUUGGACACAAACCAUGCAGUCCAGAUCGAGCA
modifications: 2'-F at all pyrimidines
[9]
  activity: 14.8 % inhibition

B5: SEQ ID NO: 23 (ssRNA)
RNA: B4 RNA with C17U, A36G, U37A, U38A, C39A, A49U, G58A
modifications: 2'-F at all pyrimidines
[9]
  activity: 14.5 % inhibition
